In article PMC8928417:

Target: biotinylated histone H3 peptide trimethylated at lysine 27, H3K27me3 (21–44), P68431
Assay: peptide or protein array

fold smaller Kd^app than PcTF: 2 fold
B1: Pc2TF, bivalent polycomb-based transcription factor with the flexible linker (GGGGS)4, Q9HC52 1-62; Q9HC52 1-62 (designed binder)
chain: MELSAVGERVFAAEALLKRRIRKGRMEYLVKWKGWSQKYSTWEPEENILDARLLAAFEERERGGGGSGGGGSGGGGSGGGGSMELSAVGERVFAAEALLKRRIRKGRMEYLVKWKGWSQKYSTWEPEENILDARLLAAFEERER
modifications: not checked
